Assay results from the supplement of paper PMC9112550, “Optimization of the antimicrobial peptide Bac7 by deep mutational scanning” (BMC Biology, 2022).

System: Escherichia coli TOP10
Assay: shrunken log2 fold change of peptide-encoding DNA abundance (4.5 h post-induction vs induction); higher = less antimicrobial activity (less host growth inhibition)
Conditions: time post-induction: 4.5 h; library: site-saturation at positions 5, 18, 19, 20
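Further: peptides expressed intracellularly from a pBAD plasmid library in pooled LB shake-flask culture, induced with 0.3% L-arabinose, DNA abundance read by NGS, three biological replicates, DESeq2 with apeglm shrinkage.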

Sequence | shrunken log2 fold change
RRIRQRPPRLPRPRPRPRDRPRP | 0.399
RRIRLRPPRLPRPRPRPIERPRP | -0.155
RRIRRRPPRLPRPRPRPNGDPRP | 0.241
RRIRERPPRLPRPRPRPQWGPRP | -0.252
RRIRDRPPRLPRPRPRPHEHPRP | 0.00488
RRIRLRPPRLPRPRPRPHYMPRP | -0.969
RRIRYRPPRLPRPRPRPEFDPRP | -0.0306
RRIRFRPPRLPRPRPRPIKQPRP | -0.0488
RRIRMRPPRLPRPRPRPASHPRP | 0.343
RRIRSRPPRLPRPRPRPCIPPRP | -0.417
RRIRCRPPRLPRPRPRPFTSPRP | -0.152
RRIRKRPPRLPRPRPRPMDFPRP | -0.0018
RRIRERPPRLPRPRPRPQRFPRP | 0.0827
RRIRDRPPRLPRPRPRPQNQPRP | -0.0268
RRIRFRPPRLPRPRPRPFIFPRP | -0.544
RRIRNRPPRLPRPRPRPKDYPRP | -0.232
RRIRGRPPRLPRPRPRPIPVPRP | 0.0104
RRIRTRPPRLPRPRPRPKDDPRP | -0.124
RRIRGRPPRLPRPRPRPADGPRP | -0.133
RRIRVRPPRLPRPRPRPNGSPRP | 0.00532
RRIRDRPPRLPRPRPRPQHYPRP | -0.856
RRIRKRPPRLPRPRPRPYDHPRP | -0.084
RRIRQRPPRLPRPRPRPRTKPRP | 0.0706
RRIRFRPPRLPRPRPRPNAVPRP | -0.0327
RRIRGRPPRLPRPRPRPSGCPRP | 0.477

Sequence | shrunken log2 fold change
RRIRDRPPRLPRPRPRPYVKPRP | -0.313
RRIRARPPRLPRPRPRPSFTPRP | 0.582
RRIRMRPPRLPRPRPRPWSTPRP | -0.144
RRIRTRPPRLPRPRPRPWPYPRP | -0.157
RRIRWRPPRLPRPRPRPRVDPRP | 0.39
RRIRERPPRLPRPRPRPRYTPRP | -0.244
RRIRNRPPRLPRPRPRPHRCPRP | -0.0136
RRIRSRPPRLPRPRPRPHEWPRP | 0.147
RRIRCRPPRLPRPRPRPHATPRP | 0.204
RRIRQRPPRLPRPRPRPIDRPRP | 0.118
RRIRRRPPRLPRPRPRPKEKPRP | -0.00936
RRIRNRPPRLPRPRPRPCYWPRP | -0.345
RRIRNRPPRLPRPRPRPIKQPRP | -0.0298
RRIRERPPRLPRPRPRPYAHPRP | -0.0128
RRIRARPPRLPRPRPRPPPNPRP | 1.35
RRIRNRPPRLPRPRPRPPKQPRP | 0.22
RRIRIRPPRLPRPRPRPRRWPRP | 0.592
RRIRDRPPRLPRPRPRPGEHPRP | 0.0372
RRIRPRPPRLPRPRPRPNAWPRP | 0.356
RRIRSRPPRLPRPRPRPYQVPRP | -0.0683
RRIRIRPPRLPRPRPRPMQIPRP | -0.099
RRIRQRPPRLPRPRPRPTIGPRP | 0.0815
RRIRYRPPRLPRPRPRPTNLPRP | -0.661
RRIRRRPPRLPRPRPRPTYRPRP | 0.309
RRIRTRPPRLPRPRPRPPTSPRP | 0.345

Sequence | shrunken log2 fold change
RRIRSRPPRLPRPRPRPWEVPRP | 0.188
RRIRARPPRLPRPRPRPHNHPRP | -0.436
RRIRCRPPRLPRPRPRPVARPRP | 0.255
RRIRMRPPRLPRPRPRPHMMPRP | -0.135
RRIRVRPPRLPRPRPRPMNKPRP | -0.403
RRIRVRPPRLPRPRPRPFVTPRP | -0.206
RRIRMRPPRLPRPRPRPLWPPRP | 0.616
RRIRWRPPRLPRPRPRPTKSPRP | 0.176
RRIRERPPRLPRPRPRPEWAPRP | 0.103
RRIRDRPPRLPRPRPRPFCKPRP | -0.164
RRIRNRPPRLPRPRPRPIVCPRP | -0.301
RRIRHRPPRLPRPRPRPDIVPRP | -0.38
RRIRPRPPRLPRPRPRPKEGPRP | -0.00237
RRIRMRPPRLPRPRPRPFLDPRP | -0.198
RRIRGRPPRLPRPRPRPIEVPRP | 0.289
RRIRWRPPRLPRPRPRPGMWPRP | 0.729
RRIRLRPPRLPRPRPRPVHSPRP | 0.00898
RRIRARPPRLPRPRPRPMEPPRP | 0.0999
RRIRMRPPRLPRPRPRPLWTPRP | 0.261
RRIRHRPPRLPRPRPRPGDTPRP | -0.0174
RRIRGRPPRLPRPRPRPVRRPRP | 0.977
RRIRNRPPRLPRPRPRPGTMPRP | 0.0148
RRIRRRPPRLPRPRPRPSCHPRP | -0.0344
RRIRTRPPRLPRPRPRPETTPRP | 0.285
RRIRYRPPRLPRPRPRPCCKPRP | 0.0599

Sequence | shrunken log2 fold change
RRIRVRPPRLPRPRPRPKKKPRP | -0.356
RRIRIRPPRLPRPRPRPMAEPRP | -0.0152
RRIRWRPPRLPRPRPRPTGMPRP | 0.117
RRIRMRPPRLPRPRPRPLVAPRP | 1.16
RRIRKRPPRLPRPRPRPNLEPRP | 0.185
RRIRYRPPRLPRPRPRPFIDPRP | -0.018
RRIRCRPPRLPRPRPRPVGRPRP | 0.422
RRIRLRPPRLPRPRPRPMYTPRP | -0.119
RRIRARPPRLPRPRPRPPTYPRP | 0.0408
RRIRVRPPRLPRPRPRPKLSPRP | -0.0136
RRIRFRPPRLPRPRPRPKCHPRP | -0.42
RRIRFRPPRLPRPRPRPKQYPRP | -0.43
RRIRERPPRLPRPRPRPCNEPRP | -1.12
RRIRKRPPRLPRPRPRPTGDPRP | 0.727
RRIRPRPPRLPRPRPRPIDNPRP | -0.15
RRIRTRPPRLPRPRPRPMPNPRP | -0.17
RRIRDRPPRLPRPRPRPSQDPRP | -0.0683
RRIRWRPPRLPRPRPRPPNNPRP | -0.0673
RRIRVRPPRLPRPRPRPPGKPRP | 0.0564
RRIRLRPPRLPRPRPRPIVKPRP | -0.0195
RRIRRRPPRLPRPRPRPMKIPRP | 0.186
RRIRTRPPRLPRPRPRPNEDPRP | -0.0528
RRIRARPPRLPRPRPRPDWIPRP | -0.0382
RRIRLRPPRLPRPRPRPNKKPRP | -0.256
RRIRFRPPRLPRPRPRPLPKPRP | 0.55

Sequence | shrunken log2 fold change
RRIRTRPPRLPRPRPRPWKVPRP | -0.00663
RRIRFRPPRLPRPRPRPHKGPRP | -0.0598
RRIRRRPPRLPRPRPRPDYLPRP | 0.152
RRIRERPPRLPRPRPRPDVRPRP | 0.0184
RRIRWRPPRLPRPRPRPVDEPRP | 0.0343
RRIRIRPPRLPRPRPRPAERPRP | 0.0773
RRIRVRPPRLPRPRPRPCENPRP | -0.0135
RRIRRRPPRLPRPRPRPLEWPRP | 0.266
RRIRDRPPRLPRPRPRPSDTPRP | -0.343
RRIRRRPPRLPRPRPRPRMWPRP | 0.431
RRIRWRPPRLPRPRPRPVFEPRP | 0.333
RRIRDRPPRLPRPRPRPRYGPRP | -0.0472
RRIRNRPPRLPRPRPRPKRVPRP | 0.148
RRIRTRPPRLPRPRPRPQLFPRP | -0.112
RRIRARPPRLPRPRPRPWKTPRP | -0.0874
RRIRCRPPRLPRPRPRPSCWPRP | 0.2
RRIRWRPPRLPRPRPRPYSLPRP | -0.201
RRIRFRPPRLPRPRPRPIMCPRP | -0.273
RRIRKRPPRLPRPRPRPMVKPRP | 0.427
RRIRQRPPRLPRPRPRPCRTPRP | 0.0557
RRIRERPPRLPRPRPRPDYCPRP | -0.00145
RRIRERPPRLPRPRPRPFRDPRP | 0.0112
RRIRARPPRLPRPRPRPSRHPRP | -0.00582
RRIRDRPPRLPRPRPRPDNQPRP | -0.105
RRIRQRPPRLPRPRPRPMNMPRP | 0.0227
